Data reported in US20140087995A1 (published 2014).
Numbered stars: 1 amine (or outer) side, 2 acyl side, 3 side chain; on linkers, the order of the positions; unused ones are H or OH. Bridge positions count the residues as written; N and C are the ends. Square brackets hold non-standard residues; d marks the D form. Side chains are listed from the residue outwards. Ends that are not written are not given here. * marks the point of attachment. C20 diacid = O=C(O)CCCCCCCCCCCCCCCCCCC(=O)*; γGlu = O=C(O)[C@H](CCC(=O)[*:2])N[*:1]

The binders below were run against T1, human calcitonin receptor (human, UniProt P30988 25-474) (assay: cell-based or functional assay).
T1 sequence (looked up): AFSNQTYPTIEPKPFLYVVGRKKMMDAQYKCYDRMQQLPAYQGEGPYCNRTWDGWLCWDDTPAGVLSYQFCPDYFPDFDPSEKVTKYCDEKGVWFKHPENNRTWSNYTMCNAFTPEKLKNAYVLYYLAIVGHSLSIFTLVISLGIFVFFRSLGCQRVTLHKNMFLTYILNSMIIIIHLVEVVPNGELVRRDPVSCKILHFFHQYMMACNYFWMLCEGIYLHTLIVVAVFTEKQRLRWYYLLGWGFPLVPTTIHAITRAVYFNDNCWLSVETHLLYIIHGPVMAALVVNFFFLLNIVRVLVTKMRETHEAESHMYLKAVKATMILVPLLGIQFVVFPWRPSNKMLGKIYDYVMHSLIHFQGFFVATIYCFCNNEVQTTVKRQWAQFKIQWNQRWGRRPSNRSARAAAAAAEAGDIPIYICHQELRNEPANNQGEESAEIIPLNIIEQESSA

How did the “hCTR funct. EC50 (pM)” value turn out when K([γGlu-C20 diacid])CNTATCATQRLAEFLRHSSPNFGAIPSSTNVGPETY-NH2 (disulfide 2-7 (inferred), Synthetic) was run?
Its value is 841 pM.

How did the “hCTR funct. EC50 (pM)” value turn out when K([γGlu-γGlu-C20 diacid])CNTATCATQRLA[dD]FLRHSSPNFGAIPSSTNVGSRTY-NH2 (disulfide 2-7 (inferred), Synthetic) was run?
The value was 100000 pM.

Which “hCTR funct. EC50 (pM)” value does the source give for K([γGlu-γGlu-C20 diacid])CNTATCATQRLAEFLRHSSPNFGAIPSSTNVGRETY-NH2 (disulfide 2-7 (inferred), Synthetic) here?
The value was 7430 pM.

How did the “hCTR funct. EC50 (pM)” value turn out when K([γGlu-γGlu-C20 diacid])CNTATCATQRLAEFLRHSSPNFGAIPSSTNVGHETY-NH2 (disulfide 2-7 (inferred), Synthetic) was run?
Its value is 7050 pM.

K([γGlu-γGlu-C20 diacid])CNTATCATQRLAEFLRHSSPNFGAIPSSTNVGPHTY-NH2 (disulfide 2-7 (inferred), Synthetic) was tested. Which “hCTR funct. EC50 (pM)” value did it give?
The value was 2830 pM.

K([γGlu-γGlu-C20 diacid])CNTATCATQRLASFLRHSSPNFGAIPSSTNVGPETY-NH2 (disulfide 2-7 (inferred), Synthetic; also called compound 120) was tested. Which “hCTR funct. EC50 (pM)” value did it give?
The value was 887 pM.
